Assay results published in the nanobody polyreactivity screen of Harvey et al. (2022).

test: yeast display, Sf9 membrane polyspecificity reagent, FACS + sequencing; frameworks hold sequencing errors
Method in brief: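 A synthetic nanobody library was expressed on Saccharomyces cerevisiae BJ5465 by galactose induction for 36–48 hours. The library was stained for 1 hour at 4 °C with 10% biotinylated, detergent-solubilized Sf9 membrane reagent and enriched with streptavidin microbeads before FACS. Low and high (top ~1%) gates were set on anti-HA fluorescence for expression and streptavidin fluorescence for reagent binding, and each polyreactivity label reflects the gate of origin.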

Sequence	polyreactivity (PSR sort gate)
QVQHVESGGGLVQAGGSLRLSCAASGFIFAANAMGWYRQGPGKERELVAAINYRGSSTYYADSVKGRFTISRDNAKNTVNLQMNSLKPEDTAVYYCAARSGAQRGGGYWGQGTQVTVSS	high polyreactivity
QVQLVESGGGLVQAGGSLRLSCAASGFIFSVNAMGWYRQAPGKERELVAAISKRGGRTYYADSVKGRFTISRDNAKNTVYLQMNSLKPEDTAVYYCAADQPTLAYPGGYSAGMDYWGQGTQVTVSS	high polyreactivity
QVQLVESGGGLVQAGGSLRLSCAASGRIFAYNAMGWYRQAPGKERELVAAIDWSGGRTYYADSVKGRFTISRDNEKNTVYLQMNSLKPEDTAVYYCATDVNSYGYYYWGQGTQVTVSS	high polyreactivity
QVQLVESGGGLVQAGGSLRLSCAASGSIFYYYTMGWYRPAPGKERELVASITGGGSTYYADSVKGRFTISRDNAKNTVYLQMNSLKPDDTAVYYCAAYRYGVTNAYGYWGQGTQVTVSS	high polyreactivity
QVQLVESGGGLVQAGGSLRLSCAASGRTFVVKAMGWYRQAPGKERELVAAITRRGGITYYADSVKGRITISRDNAKNTVYLQMNSLKPEDTAVSYCAADRSYYPDTRTTSGYNYWGQGTQVTVSS	low polyreactivity
QVQLVESGGGLVQAGGSLSLSCAASGSISDVYPMGGYRQAPRKERELVAAITSGASTYYADSVKGRFTISRDNAKNTVYLQLNSLKTEDTAVYYCAAGYSDWYYADYNSWGQGTQVTVSS	low polyreactivity
QVQLVESGGGLVQAGGSLRLSCAASGSIFLYNAMGWYRQAPGKESEFDAAISWSGVSTYYADSVKGRFTISRDNAKNTVYLHMNSLKPEDTAVYYCNAVYARVPIYDYWGQGTQVTVSS	low polyreactivity
QGQLLESGGGLVQAGGSLRLSCAASRFNFRFYAIGWYRQAPGKERELVASITQGGSTYYADSVKGSFTISRDNAKNTVYLQMNSLKPVDTAVYSCAARYLGGRRSGDYSRYYWGQGTQVSVSS	high polyreactivity
QVQLVESGGGLVQAGGSLRLSCAASGITFNSYAMGWYRQAPGKERELVAAITLTGGTTYYADSVKGRFTISRDNAKNTVYLQMNSLKPEDTAVYYCAAQYWWWSRFEYDSWGQGTQVTVSS	low polyreactivity
QVQLVESGGGLVQEGGSLRLSCAASGSIFGRNAMGWYRQAPGKERELVAAITSRTGSTFYADSVKGRFTISRDNAKNTDYLQMNSLKPEATAVYYCKAAGPAFSYYHWLWGDYNSWGQGTQVTVSS	low polyreactivity
QVQLVESGGGLVQAGGSLRLSCAASGRIFGYIAMGWYRPAPGKERELVAAISWSGGSTYYADSVKGRFTISRDNAKNTVYLQMNSLKPEDTAVYYCAADSQDGYFYWGQGTQVTVSS	low polyreactivity
QVQLVESGGGLVQAGGSLRLSCAASGRTFVYYAMGWYRQAPGKERELVARISSSGGRTSYADSVKGRFTISRDNAKNTVYLQMNRLKPEDTAVYYCNAGRYRAGGWGVGEGYWGQGTQVTVSS	high polyreactivity
QVQLVESGGGLVQAGGSLRLSCAASGSTLYGNVMGWFRQAPGKERELVATINRGGSTNYADSVKGRFTISRDNAKNTVYLQMNSLKPEDTAVYYCAVYHYSSYEYLGQGTQVTVSS	low polyreactivity
QVQLVESGGGIVQAGGSLRLSCAASGFIFVLYAMGWYRQAPGKERELVASISSTGSTYYADSVKGRFTISRENAKNTVYLQMNSLIPEDTAVYYCNLFVFDPEDFWGEGTQVTVSS	low polyreactivity
QVQLVESGGGLVQAGRSLRLSCAASGSTFYGYAMGWYRQPPGKERELVAAITSSGGSTYYADSVKGRFTISRDNAKITVYVQLNSLKPEDTAVYYCNAKRAPWGTLYNYWGQGTQVTVSS	high polyreactivity
QVQLVESGGGLVQAGGSLRLSCAASGITFAYYARGWYRQAPGKERELVAAITGDGGYTYYADSVKGRFTISRDNAKNTVYLQMNSLKPEDTAVYYCNAELSDYRYDWWDYDYWGQGTQVTVSS	high polyreactivity
QVQLVESGGGLVQAGGSLRLSCAASGSTFKLYVMGLYRPAPGKERELVAAIDWSGGSTYYADSVKGRFTISRDNAKNTVYLQMNSLTPEDTAVYYCAADSPNSWRMDYWGQGTQVTVSS	low polyreactivity
QVQLVESGGGLVQAGGSLRLSCAASGRIFWGYVMGWYRQAPGKERELVAAISSGGDTHYADSVKGRFTISRDNAKKTVYLQMNSLKPEDTAVYYCAARPNFTPYEYGYWGQGTQVTVSS	low polyreactivity
QVQLVESGGGLVQAGCSLRLSCAASGFIYPVNAMGWYRQAPGKERELVAAITYSTGSTYYADSVKGRFTISRDNAKNTVYLQMNSLKPEDTAVYYCAADVPPGEVVTNDYWGQGTQVTVSS	low polyreactivity
QVQLVESGGGLVQAGGSLRLSCAASGLIFGTYAMGWYRQAPGKERELVATINSSGGSTYYADSVKGRFTISRDNAKNTVYLQMNSLKPEDTAVYYCNTRRYDAYYDYDYWGQGTQVTVSS	low polyreactivity
QVQLVESGGGLVQAGGSLRLSCAASGSTFGYNAMGWYRQAPGKERELVARITSSGGSTYYADSVKGRFTISRDNAKNTVYLQMNSLKPEDTAVYYCAAGYLSGNYARYGYWGQGTQVTVSS	high polyreactivity
QVQLVESGGGLVQAGGSLRLSCAASGFTFRRYAMGWYRQAPGKERELVAAITRTGAGTYYADSVKGRFTISRDNAKNTVYLQMNSLKPEDTAVYYCAAAFYYASAMDYWGQGTQVTVSS	high polyreactivity

Sequence	polyreactivity (PSR sort gate)
QVQLVESGGGLVQAGGSLRLSCAASGRTFGWYAMGWYRQAPGKERELVAAITSGTSTYYADSVKGRFTISRDNAKNTVYLQMYSLKPEDTAVYYCAVDRGISVGYTRFDYWGQGTEVTVSS	low polyreactivity
QVQLVESGGGLVQAGGSLRLSCAASGRIFQYYAMGWYRPAPGKEREFVAAISDSGSNTYYADSVMGRFTISRDNAKNTVYLQMNSLKPEDTAVYYSAALYATRALFYYWGQGTQGTVSS	low polyreactivity
QVQLEESGGGLVQAGGSLRLSCAASGSTIHSYAMGWYRHAPGKERELVAAITTTGTRTYYADSVKGRFTISRDNAKNTVYLQMNSLKPEDTAVYYCNAQRLQAHRTSRRYGFWGQGTQVTVSS	high polyreactivity
QVQLVESGGGLVQAGGSLRLSCAASGFIFKGNAMGWYRPAPGKERELVAAISSRGGSTYYADSVKGRFTISRDNAKNTVYLQMNSLKPEDTAVYYCATRVYWRNDYWGQGTQVTVSS	high polyreactivity
QVQLVESGGGLVQAGGSLRLSCAASGRTFQVYAMGWYTQAPGKERELVADITGRGGITYYADSVKGRFTISRDNAKNTVYLQMNSLKPEDTAVYYCAAERYNYKTIYRYDYWGQGTQVTVSS	high polyreactivity
QDQLVESGGGLVQAGGSLRLICAASARTFSHYPLGWYRQAAGKERELVATITRNGRITYYADSVKGRFTISRDNAKYTVYFQMNSLKPEDTAVYYFNKRWGGPIQFDYWGPGTQVTVSS	low polyreactivity
QVQLVESGGGLVQAGGSLRLSCAASGRIFYINAMGWYRQAPGKEWELVAGITRSGGSTYYADSVKGRFTISRDNAKNTVYLQMNSLKPEDTAVYYCNAGRYARQHSRYDYWGQGTQVTVSS	high polyreactivity
QVQLVESGGGLVQAGGSLRLSCAASGSIFASYAMGWYRQAPGKERELVAAITYSGSRTYYADSVKGRFTISRDTAKNTVYLQMNSLKPEDTAVYYCNADYYWYPYEDDYWGQGTQETVSS	low polyreactivity
QVQLVESGRGLVQAGGSLRLSCAASGSTFLDYAMGWYRQAPGKERELVAAINGSGSRTYYADSVKGRFTISRDNAKNTVYLQMNRLKPEDTAVYYCAHEYGYWGQGTQVTVSS	low polyreactivity
QVQLVESGAGLVQAGGSLRLSFAASGRTFVYNAMAWYRQAPGKERELVAAIDGGGDRTYYADSVKGRFTISRDNAKNTVYLQMNSLKPEDTAVYYCARDPGDTYYYSYPEGDYWGQGTLVTVSS	low polyreactivity
QVQLVESGGGLVQAGGILRLSCAASGFTFWYYVMGWYRQAPGKERELVAAITSSGDSTYYADSVKGRFTISRDNAKNTVYLQMNSLKPEDTAVYYCAAQRYPFERVYWGQGTQVTVSS	high polyreactivity
QVQLVESGGGLVQAGGSLRLSCAASGSIFRNYAMGWYRQAPGKERELVASIRYSGGRTNYADSVKGRFTISRDNAKNTVYLQMNSLKPEDTAVYYCAADPGYGWQRAYYYWGQGTQVTVSS	high polyreactivity
QVQLVESGGGLVQAGGSLRLSCAASVYIFQSNVMGWYRQAPGKESELLAAITVSGGSTYYADSVKGRFTISRDNGKNTVYLQMKSLKPEDTAVYYCNKVGVKFRVDGWYDYWGQATQVTVSS	high polyreactivity
QVQLVESGGGLVQAGGSLRLSCAASGIIFGRYTMGWYRQAPGKERELVAAITSSGITYYADSVKGRFTISRDNAKNTDYLQMNSLKPEDTAVYYCNADYSIPGYYWPYDYWGQGTQVTVSS	low polyreactivity
QVQLVESGGGLVQAGGSLRLICAASGFTFSYNAMGWYRPAPGTERELVAVITKSGGSTNYADSVKGRFTISRDNAKNTVYLQRNSLKPEDTAVYYCNRQIKKLLTTHYYWGQGTQVTVSS	high polyreactivity
QVQLVESGGGLVQAGGSLRLSCAASGSNFRYYAMGWDRQAPGKERELVAAISYSGGTTYYADSVKGRFTISRDNAKNTVYLQMNSLKPEDTAVYYCAVPLIGVDGYAYDYWGQGTQVTVSS	low polyreactivity
QVQLVESGGGLVQAGGSLRLSCAASGRIGYYAMGWYRQAPGKERELVAAISYGGGSTYYADSVKGRFTISRDNAKNTVYLQMNSLKPEDTAVYYCAARWGISWRGYGYWGQGTQVTVSS	high polyreactivity
QVQLVESGGGLVQAGGSLRLSCAASGHIFTRNSMGWYRQAPGKERELVAAISRTGGSTYYADSVKGRFTISRDNAKNTVYLQMNSLKPEDTAVYDCAKRRQASEDYWGQGTQVTVSS	high polyreactivity
QVQLVESGGGLVQAGGSLRLSCAASGNTFYSYAMGWYRQAPGKERELVAAITWGGRTKYADSVKGRFTISRDNAKNTVYLQMNSLKPEDTAVYYCAARLYHGKTKYDYWGQGTQVTVSS	high polyreactivity
QVQLVESGGGLVQAGGSLRLSCAASGFTFGANVMGWYRQAPGKERELVAAINTRGSRTYYADSVKGRFTISRDHAKNTVYLQMNRLKQEDTAVYYCAAALRKEYDYWGQGTQVTVSS	high polyreactivity
QVQLVESGGGLVQAGGSLRLSCAASGSIFDYYAMGWYRQAPGKERELVAAISTSTSSTYYADSVKGRFTISRDNAKNTVYFQMNSLKPEDTAVYYCAAEGESQPESPGYDYWGQGTQVTVSS	low polyreactivity
